Test results from patent publication US20040106120A1, “Diagnosis and treatment of disease” (priority 2000, published 2004).
Each block holds one molecule with its values, some of them ahead of it.

Columns and labels:
[1] = system: cultured skin equivalent; experiment: Treatment of skin equivalents with other protease inhibitors for 24 h, light and electron microscopy; assay type: cell-based; details: SLPI 500 nM, cultured for 24 h
Method: Skin equivalent (+ and − inhibitor) is cultured with the inhibitor for 24 h. Skin equivalent are taken the preparation of histological sections. Sections are then analysed by light and electron microscopy.
SLPI (500 nM) is added to cultured skin equivalent, and cultured for 24 h. Skin equivalent (+ and − SLPI) are taken the preparation of sections. Sections are then analysed in light and electron microscopy.
SCCE antibody is added is added to cultured skin equivalent, and cultured for 24 h. Skin equivalent (+ and − SCCE antibodies) are taken the preparation of sections. Sections are then analysed in light and electron microscopy.
SCTE antibody is added is added to cultured skin equivalent, and cultured for 24 h. Skin equivalent (+ and − SCTE antibodies) are taken the preparation of sections. Sections are then analysed in light and electron microscopy.

[2] = Topical protease inhibitor in emollient cream on volunteer's arm skin for 14 days, biopsy histology; assay type: in vivo; details: human volunteer, emollient cream applied daily to arm for 14 days under occlusion
Text: SPLI protease inhibitor is extracted from normal human skin of a volunteer. Alternatively, a nucleic acid sequence encoding the protease inhibitor from the individual is cloned using PCR, or library screening. The individual's protease inhibitor sequence is cloned into an expression vector, and recombinant protease inhibitor expressed and purified using conventional and known means.
The inhibitor is then formulated in an emollient cream base. Two fingertip units of this formulation are applied to an area of the volunteer's skin on the arm measuring 2×2 cm. The area is covered with a plastic capsule which is secured in place with a cotton bandage. The cream is reapplied to the same area each day for 14 consecutive days.
On day 14 the cup is removed and a 1×0.5 cm ellipse skin biopsy is taken from the treated area and a similar biopsy taken from an untreated area on the opposite arm.

[3] = molecular target: T1, Envoplakin (Homo sapiens, UniProt Q92817); experiment: Cleavage of adhesion proteins from human epidermis by recombinant SCCE/SCTE (immunoblot); assay type: biochemical; details: human epidermis protein extract incubated with active recombinant enzyme at 37 C
T1 construct: The native form of Envoplakin has a molecular weight of between 124-209 kDa; from tissue; host or cells: human epidermis (TENP-40 buffer extract)
T1 sequence (Q92817 whole entry): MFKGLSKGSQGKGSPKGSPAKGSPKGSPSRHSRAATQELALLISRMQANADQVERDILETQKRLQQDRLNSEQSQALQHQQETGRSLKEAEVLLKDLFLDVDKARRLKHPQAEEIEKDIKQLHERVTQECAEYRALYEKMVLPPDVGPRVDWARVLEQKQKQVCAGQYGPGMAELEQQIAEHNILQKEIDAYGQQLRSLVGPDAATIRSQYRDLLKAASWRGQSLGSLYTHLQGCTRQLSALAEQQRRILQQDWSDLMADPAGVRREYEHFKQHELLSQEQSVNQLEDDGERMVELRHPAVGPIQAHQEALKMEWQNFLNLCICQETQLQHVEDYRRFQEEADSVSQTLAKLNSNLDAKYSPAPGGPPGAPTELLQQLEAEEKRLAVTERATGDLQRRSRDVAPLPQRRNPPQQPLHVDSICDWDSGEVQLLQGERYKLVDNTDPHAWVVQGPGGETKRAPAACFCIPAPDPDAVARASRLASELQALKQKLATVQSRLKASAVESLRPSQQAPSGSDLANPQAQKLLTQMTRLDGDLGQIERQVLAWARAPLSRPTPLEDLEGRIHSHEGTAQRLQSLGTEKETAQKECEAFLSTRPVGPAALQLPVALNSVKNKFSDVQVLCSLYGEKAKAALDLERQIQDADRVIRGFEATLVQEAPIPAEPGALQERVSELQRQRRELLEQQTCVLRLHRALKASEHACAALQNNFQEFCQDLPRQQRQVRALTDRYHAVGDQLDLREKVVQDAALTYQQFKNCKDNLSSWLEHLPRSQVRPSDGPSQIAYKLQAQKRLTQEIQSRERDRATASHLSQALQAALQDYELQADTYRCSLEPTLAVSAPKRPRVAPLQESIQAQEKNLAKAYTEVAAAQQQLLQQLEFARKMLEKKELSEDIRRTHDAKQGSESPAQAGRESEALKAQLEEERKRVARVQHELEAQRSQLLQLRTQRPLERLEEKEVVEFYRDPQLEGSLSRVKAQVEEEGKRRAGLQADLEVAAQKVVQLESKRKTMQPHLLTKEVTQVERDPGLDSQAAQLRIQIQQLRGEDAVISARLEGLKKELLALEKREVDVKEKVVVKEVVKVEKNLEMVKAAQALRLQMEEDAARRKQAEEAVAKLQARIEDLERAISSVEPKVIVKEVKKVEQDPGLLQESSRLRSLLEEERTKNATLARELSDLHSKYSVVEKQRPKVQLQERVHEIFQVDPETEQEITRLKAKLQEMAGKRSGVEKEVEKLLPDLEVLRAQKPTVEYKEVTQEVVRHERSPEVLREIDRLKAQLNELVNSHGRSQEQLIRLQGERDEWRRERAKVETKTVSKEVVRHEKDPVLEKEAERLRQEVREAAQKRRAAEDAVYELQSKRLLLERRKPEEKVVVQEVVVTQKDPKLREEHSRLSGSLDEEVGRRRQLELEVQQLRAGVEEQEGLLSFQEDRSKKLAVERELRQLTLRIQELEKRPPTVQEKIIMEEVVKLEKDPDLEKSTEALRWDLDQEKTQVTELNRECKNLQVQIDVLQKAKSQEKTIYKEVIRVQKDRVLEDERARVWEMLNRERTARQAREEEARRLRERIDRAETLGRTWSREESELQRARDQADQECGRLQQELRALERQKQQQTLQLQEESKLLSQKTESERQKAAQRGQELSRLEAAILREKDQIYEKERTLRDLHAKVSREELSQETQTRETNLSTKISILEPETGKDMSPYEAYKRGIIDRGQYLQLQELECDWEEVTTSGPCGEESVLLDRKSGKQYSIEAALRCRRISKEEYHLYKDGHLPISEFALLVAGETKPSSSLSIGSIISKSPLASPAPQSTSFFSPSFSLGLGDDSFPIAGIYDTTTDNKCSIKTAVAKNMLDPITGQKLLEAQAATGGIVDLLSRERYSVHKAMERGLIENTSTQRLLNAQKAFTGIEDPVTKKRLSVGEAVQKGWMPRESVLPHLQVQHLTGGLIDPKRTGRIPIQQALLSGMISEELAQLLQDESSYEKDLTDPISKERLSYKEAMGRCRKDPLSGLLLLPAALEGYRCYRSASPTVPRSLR
Method: (§1) Recombinant ProSCCE is produced and purified as described above. Recombinant ProSCCE is activated with agarose-bound trypsin, as described in Brasttsand & Egelrud, 1999.
(§2) Proteins are extracted from human epidermis in the presence of a detergent (TENP-40 buffer extract) and incubated with active SCCE for 37 C. for 4 h. The reactions are stopped by boiling for 2 mins after Laemmli's sample buffer is added. The proteins are immunoblotted with antibodies against corneodesmosomal proteins.

[4] = molecular target: T2, Corneodesmosin (Homo sapiens, UniProt Q15517); experiment: as above; assay type: biochemical; details: human epidermis protein extract incubated with active recombinant enzyme at 37 C
T2 construct: The native form of corneodesmosin has a molecular weight of between 50 and 56 kDa; from tissue; host or cells: human epidermis (TENP-40 buffer extract)
T2 sequence (Q15517 33-529): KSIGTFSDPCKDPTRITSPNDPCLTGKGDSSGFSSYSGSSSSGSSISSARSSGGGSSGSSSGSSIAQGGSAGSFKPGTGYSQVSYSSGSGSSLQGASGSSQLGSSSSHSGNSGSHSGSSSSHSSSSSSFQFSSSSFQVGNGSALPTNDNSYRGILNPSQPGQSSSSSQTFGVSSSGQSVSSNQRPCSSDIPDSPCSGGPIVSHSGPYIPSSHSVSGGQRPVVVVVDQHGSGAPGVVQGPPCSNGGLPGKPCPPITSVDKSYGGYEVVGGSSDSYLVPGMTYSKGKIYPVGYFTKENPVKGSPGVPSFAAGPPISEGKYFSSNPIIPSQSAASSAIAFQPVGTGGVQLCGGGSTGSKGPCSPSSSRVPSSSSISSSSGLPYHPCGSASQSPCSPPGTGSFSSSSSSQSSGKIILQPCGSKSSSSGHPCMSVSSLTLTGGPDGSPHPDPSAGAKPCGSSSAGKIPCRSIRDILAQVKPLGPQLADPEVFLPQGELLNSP
Method: as §1, §2

[5] = molecular target: T3, Plakoglobin (Homo sapiens, UniProt P14923); experiment: as above; assay type: biochemical; details: human epidermis protein extract incubated with active recombinant enzyme at 37 C
T3 construct: The native form of plakoglobin has a molecular weight of between 85 kDa and 75 kDa; from tissue; host or cells: human epidermis (TENP-40 buffer extract)
T3 sequence (P14923 1-745): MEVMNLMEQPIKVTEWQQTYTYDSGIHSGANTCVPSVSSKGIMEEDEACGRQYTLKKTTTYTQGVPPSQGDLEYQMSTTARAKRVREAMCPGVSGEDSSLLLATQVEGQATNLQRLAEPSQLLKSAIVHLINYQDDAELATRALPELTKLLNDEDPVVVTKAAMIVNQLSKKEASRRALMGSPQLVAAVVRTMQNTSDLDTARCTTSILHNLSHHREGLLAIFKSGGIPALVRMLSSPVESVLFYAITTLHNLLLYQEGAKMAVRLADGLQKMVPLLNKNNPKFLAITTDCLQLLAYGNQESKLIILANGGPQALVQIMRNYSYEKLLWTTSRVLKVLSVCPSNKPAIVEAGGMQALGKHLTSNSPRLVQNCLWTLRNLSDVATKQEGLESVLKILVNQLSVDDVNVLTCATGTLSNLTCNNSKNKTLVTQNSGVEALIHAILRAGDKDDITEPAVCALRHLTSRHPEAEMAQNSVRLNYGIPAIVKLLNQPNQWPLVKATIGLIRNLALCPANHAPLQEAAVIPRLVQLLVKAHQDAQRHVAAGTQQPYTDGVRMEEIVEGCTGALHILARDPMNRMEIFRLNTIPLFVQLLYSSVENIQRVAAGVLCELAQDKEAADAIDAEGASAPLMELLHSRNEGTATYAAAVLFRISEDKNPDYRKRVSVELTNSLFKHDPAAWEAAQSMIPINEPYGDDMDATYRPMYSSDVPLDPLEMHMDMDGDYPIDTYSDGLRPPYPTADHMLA
Method: as §1, §2

[6] = system: Desmocollin; experiment: as above; assay type: biochemical; details: human epidermis protein extract incubated with active recombinant enzyme at 37 C
Method: as §1, §2

[7] = system: Desmoplakin; experiment: as above; assay type: biochemical; details: human epidermis protein extract incubated with active recombinant enzyme at 37 C
Method: as §1, §2

[8] = system: Desmoglein; experiment: as above; assay type: biochemical; details: human epidermis protein extract incubated with active recombinant enzyme at 37 C
Method: as §1, §2

[9] = system: corneodesmosomes in stratum corneum tape strips; experiment: Treatment of tape strips from psoriatic skin with proteases, corneodesmosome density by electron microscopy; set-up: species or system human; details: 22-50 nM recombinant SCCE or SCTE, 1-6 h at 37° C
Method: Tape strips are obtained according to a method described by Guerrin et al, 1998.
Small pieces of tape strips from control patients along with patients suffering from the skin conditions eczema, psoriasis, dermatitis and psoriasis are fixed for 2 h at 4° C. in Karnovsky fixative (2% paraformaldehyde, 2.5% gluteraldehyde in 0.1M phosphate buffer, pH 7.4). The samples are then washed three times in 0.1M phosphate buffer (pH7.4) containing 10% sucrose for 30 minutes each at 4° C.
Secondary fixation is carried out in aqueous 2% osmium tetroxide solution for 1 hour at room temperature. Dehydration is through a graded series of ethanol at room temperature (75% ethanol for 15 minutes; 95% ethanol for 15 minutes; 2 washes of 100% ethanol for 15 minutes; 100% ethanol dried over anhydrous copper sulphate for 15 minutes).
For resin embedding, samples are first placed in the intermediate solvent, propylene oxide, for two changes of 15 minutes duration. This is followed by infiltration in a 50:50 mixture of propylene oxide:araldite resin overnight at room temperature. […]
Ultrathin sections (70-90 nm) are cut on an ultramicrotome. […] Electron micrographs are recorded on Agfa Scientific 23D56 EM film.
Corneodesmosome density (area occupied by corneodesmosomes divided by total area of micrograph) is measured on electron micrographs of tape strips of each condition. […]

B1: SLPI: Secretory Leukoprotease Inhibitor protein added to cultured skin equivalent (protein, UniProt P03973 26-132, looked up)
Antileukoproteinase: SGKSFKAGVCPPKKSAQCLRYKKPECQSDWQCPGKKRCCPDTCGIKCLDPVDTPNPTRRKPGKCPVTYGQCLMLNPPNFCEMDGQCKRDLKCCMGMCGKSCVSPVKA
effect on stratum corneum thickness and skin barrier of skin equivalent [1]: increase the thickness of the stratum corneum

B2: SPLI protease inhibitor: SLPI extracted from normal human skin or recombinant, formulated in an emollient cream base (protein, UniProt P03973 26-132, looked up)
Antileukoproteinase: B1 Antileukoproteinase
modifications: emollient cream formulation
notes: SLPI extracted from normal human skin or recombinant, formulated in an emollient cream base
histology of stratum corneum, treated biopsy compared with control [2]: thickening of the stratum corneum with loosely adherent scales
histology of viable epidermis, treated biopsy compared with control [2]: parakeratosis and thickening

proteolysis of Envoplakin [3]: proteolysed
proteolysis of Corneodesmosin [4]: proteolysed
proteolysis of Plakoglobin [5]: proteolysed
B3: SCCE: recombinant Stratum Corneum Chymotryptic Enzyme, activated with agarose-bound trypsin (protein, UniProt P49862 30-253, looked up)
Kallikrein-7: IIDGAPCARGSHPWQVALLSGNQLHCGGVLVNERWVLTAAHCKMNEYTVHLGSDTLGDRRAQRIKASKSFRHPGYSTQTHVNDLMLVKLNSQARLSSMVKKVRLPSRCEPPGTTCTVSGWGTTTSPDVTFPSDLMCVDVKLISPQDCTKVYKDLLENSMLCAGIPDSKKNACNGDSGGPLVCRGTLQGLVSWGTFPCGQPNDPGVYTQVCKFTKWINDTMKKHR
modifications: activated with trypsin
proteolysis of Desmocollin [6]: proteolysed
proteolysis of Desmoplakin [7]: proteolysed
proteolysis of Desmoglein [8]: proteolysed
number of corneodesmosomes in treated versus untreated stratum corneum [9]: decrease significantly
